Data published in IntAct's records for PubMed 18278056.

B1: Insulin receptor substrate 2 (Mus musculus), P81122 (parent)
chain: MASAPLPGPPASAGGDGPNLNNNNNNNNHSVRKCGYLRKQKHGHKRFFVLRGPGTGGDEASAAGGSPPQPPRLEYYESEKKWRSKAGAPKRVIALDCCLNINKRADAKHKYLIALYTKDEYFAVAAENEQEQEGWYRALTDLVSEGRSGEGGSGTTGGSCSASLPGVLGGSAGAAGCDDNYGLVTPATAVYREVWQVNLKPKGLGQSKNLTGVYRLCLSARTIGFVKLNCEQPSVTLQLMNIRRCGHSDSFFFIEVGRSAVTGPGELWMQADDSVVAQNIHETILEAMKALKELFEFRPRSKSQSSGSSATHPISVPGARRHHHLVNLPPSQTGLVRRSRTDSLAATPPAAKCTSCRVRTASEGDGGAAGGAGTAGGRPMSVAGSPLSPGPVRAPLSRSHTLSAGCGGRPSKVTLAPAGGALQHSRSMSMPVAHSPPAATSPGSLSSSSGHGSGSYPLPPGSHPHLPHPLHHPQGQRPSSGSASASGSPSDPGFMSLDEYGSSPGDLRAFSSHRSNTPESIAETPPARDGSGGELYGYMSMDRPLSHCGRPYRRVSGDGAQDLDRGLRKRTYSLTTPARQRQVPQPSSASLDEYTLMRATFSGSSGRLCPSFPASSPKVAYNPYPEDYGDIEIGSHKSSSSNLGADDGYMPMTPGAALRSGGPNSCKSDDYMPMSPTSVSAPKQILQPRLAAALPPSGAAVPAPPSGVGRTFPVNGGGYKASSPAESSPEDSGYMRMWCGSKLSMENPDPKLLPNGDYLNMSPSEAGTAGTPPDFSAALRGGSEGLKGIPGHCYSSLPRSYKAPCSCSGDNDQYVLMSSPVGRILEEERLEPQATPGAGTFGAAGGSHTQPHHSAVPSSMRPSAIGGRPEGFLGQRCRAVRPTRLSLEGLQTLPSMQEYPLPTEPKSPGEYINIDFGEAGTRLSPPAPPLLASAASSSSLLSASSPASSLGSGTPGTSSDSRQRSPLSDYMNLDFSSPKSPKPSTRSGDTVGSMDGLLSPEASSPYPPLPPRPSTSPSSLQQPLPPAPGDLYRLPPASAATSQGPTAGSSMSSEPGDNGDYTEMAFGVAATPPQPIVAPPKPEGARVASPTSGLKRLSLMDQVSGVEAFLQVSQPPDPHRGAKVIRADPQGGRRRHSSETFSSTTTVTPVSPSFAHNSKRHNSASVENVSLRKSSEGSSTLGGGDEPPTSPGQAQPLVAVPPVPQARPWNPGQPGALIGCPGGSSSPMRRETSVGFQNGLNYIAIDVRGEQGSLAQSQPQPGDKNSWSRTRSLGGLLGTVGGSGASGVCGGPGTGALPSASTYASIDFLSHHLKEATVVKE

Variants of: B1
Settings: with INSR

Row | Variant | effect of a mutation on the interaction
1 | D627A | disrupting interaction
2 | Y621A | disrupting interaction
3 | Y624A | disrupting interaction

Continued, values first:

Row | effect of a mutation on the interaction | Variant
4 | disrupting interaction | I633A
5 | disrupting interaction | I631A
6 | disrupting interaction | Y628F
7 | disrupting interaction | G629A

Variants of: B1
Settings: with igf1r_human IGF1R

Row | effect of a mutation on the interaction | Variant
8 | disrupting interaction | Y628F
